Target: T1, ClpB, wild type (E. coli, UniProt P63284 1-857)
T1 construct: ClpB, E. coli, wild type; also called wt ClpB; wt-ClpB; source: E. coli BB4561, purified as previously described
Assay: co-sedimentation; G6PDH50 aggregates (1 μM) incubated 10 min at 30 °C in refolding buffer with DnaJ, 3.5 μM wt DnaK or variant, with or without 5 μM wt or mutant ClpB, 3 mM ATP with regenerating system, no GrpE; 122,000 x g, 40 min, 4 °C; pellets on SDS-PAGE or NuPAGE, densitometry, controls with native G6PDH subtracted
Conditions: both partners purified

binding result: binds
B1: DnaK_(1–507) (domain or fragment)
chain: not shown
notes: DnaK, E. coli, residues 1-507 (lid deleted); also called Δlid; Δlid-DnaK
